Molecular target: Full-length (FL) BRAF purified from HEK293F cells (UniProt P15056)
Assay: SPR; OpenSPR; His/MBP-NT1-4 or FL-BRAF immobilised on Ni-NTA sensor, KRAS-GMPPNP (GST-tagged or untagged) or GST alone flowed at 30 μL/min for 10 min; 20 mM HEPES pH 7.4, 150 mM NaCl, 0.23% glycerol, 0.05% Tween-20, 1% BSA; 1:1 fit

Chain of Full-length (FL) BRAF purified from HEK293F cells (P15056 whole entry): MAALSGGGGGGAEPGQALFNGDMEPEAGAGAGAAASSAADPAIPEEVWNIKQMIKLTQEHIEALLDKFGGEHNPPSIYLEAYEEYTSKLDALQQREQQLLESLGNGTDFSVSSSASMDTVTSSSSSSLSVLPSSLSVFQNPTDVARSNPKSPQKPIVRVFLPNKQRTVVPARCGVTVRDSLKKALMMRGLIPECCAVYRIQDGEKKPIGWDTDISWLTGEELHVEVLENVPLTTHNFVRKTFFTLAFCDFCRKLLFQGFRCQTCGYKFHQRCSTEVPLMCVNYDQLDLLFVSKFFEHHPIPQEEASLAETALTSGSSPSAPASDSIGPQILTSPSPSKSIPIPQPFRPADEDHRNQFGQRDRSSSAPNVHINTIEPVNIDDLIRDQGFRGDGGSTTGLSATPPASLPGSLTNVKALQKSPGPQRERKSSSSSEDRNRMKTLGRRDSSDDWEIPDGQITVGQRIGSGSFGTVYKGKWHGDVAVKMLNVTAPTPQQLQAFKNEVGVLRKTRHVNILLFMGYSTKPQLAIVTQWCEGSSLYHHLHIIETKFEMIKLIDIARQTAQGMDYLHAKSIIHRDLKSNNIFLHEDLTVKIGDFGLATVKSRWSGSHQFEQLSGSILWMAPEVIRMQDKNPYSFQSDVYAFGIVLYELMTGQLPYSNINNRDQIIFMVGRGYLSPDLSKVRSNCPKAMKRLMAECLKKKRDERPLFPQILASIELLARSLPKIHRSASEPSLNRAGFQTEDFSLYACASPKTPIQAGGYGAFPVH

- Kd: 101 nM
Substance: GST-tagged, dimeric full-length KRAS4b (from UniProt P01116-2 1-188) (natural protein)

Source: article doi:10.1101/2023.04.24.538112
